± gives the half width of the 95% confidence interval.
Legend:
[1] = folding stability dG unfold from trypsin proteolysis; higher = more stable
Summary of the method: (§1)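 Unfolding free energy was derived, per protease or combined, against a sequence-predicted unfolded-state K50 and a shared folded-state K50, starting from K50 inferred by Bayesian fitting of sequencing counts. Digestion with trypsin and chymotrypsin was carried out on designed mini-proteins under 80 residues without cysteine in a PA-tagged cDNA display construct. Only designs with AlphaFold2 dimer inter-PAE above 15 were kept.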

[2] = folding stability dG unfold (combined trypsin and chymotrypsin); higher = more stable
Summary of the method: as §1

[3] = folding stability dG unfold from chymotrypsin proteolysis; higher = more stable
Summary of the method: as §1

Sequence	folding stability dG unfold [1] [kcal/mol]	folding stability dG unfold [2] [kcal/mol]	folding stability dG unfold [3] [kcal/mol]
SKTFYAGLDVYFDPDSDELTALVGVRSEDGSYEPSLEEVAREVAAKLRELGYEVEVEPLPGYARIRVKPPSA [r9_510_TrMRF]	1.67 ± 0.039	1.71 ± 0.057	1.72 ± 0.069
SAGGSAGGSAGSKTPSVLVIEVDANTSIEKILELYKKNYPVGEIRVFTRPDGRKIAVITGSAGGSAGGSAGG [r11_97_TrMRF]	2.22 ± 0.028	2.31 ± 0.12	2.33 ± 0.069
SAGGSAGGSAGKEKTITVLLEVDGYLVVAEVKLNEDGSLEITSVKVIKLPKPKPSPEALKSAGGSAGGSAGG [r11_843_TrROS_Hall]	1.07 ± 0.048	0.907 ± 0.21	0.516 ± 0.033
SAGGMTTTTTTYTIQLPNGETLTITITTTTLPGGITVTIPIGGTSPDQIAIAKELAEKLAAEIKEAASAGGS [r8_416_JUSTAS]	2.89 ± 0.096	3.55 ± 0.11	3.83 ± 0.1
SAGGGSYTIVVELGDKKVVFEIDKEEAVEEAVAKLPELGLEVEVLKKEKVLNEDGKPSVLVEVKVKPSAGGS [r8_336_TrMRF]	-0.663 ± 0.17	0.631 ± 0.1	1.12 ± 0.059
SAGGSAGGSAGSVTITRDYPTPDGTRTTVTITFPSLERSPSVKYKLVSVSPDGNYVLSPESAGGSAGGSAGG [r11_733_JUSTAS]	2.11 ± 0.18	1.91 ± 0.28	1.61 ± 0.17
SAGGEIEIVVETPEDLEKAKELAEELAKALEEAGLEIEEVKVELVEETVVNEDGEEKKRYVLKITFPSAGGS [r16_591_TrROS_Hall]	2.46 ± 0.1	2.97 ± 0.14	3.24 ± 0.086
SAGGLSGEAKLVEAEFEPETGTVRVFAEAGDELLTFEFKGTPFLPPIPASISPESLEKDEPVIRVSGSAGGS [r16_809_TrMRF]	0.597 ± 0.059	0.422 ± 0.079	0.143 ± 0.14
SAGGSAGGSAEKVITVWIPLPPGQGVDEIAKEIARYLGFPNIKIDNIQYDPEDGWYQITFKLSAGGSAGGSA [r18_481_TrROS]	3.48 ± 0.096	3.97 ± 0.061	4.163 ± 0.032
SAGGVLLEFPDGTTVEITVTTSTSTFKDPTTDKTVTKSSTTITVTRKTPDPVVTPVPASEAQRIFDSTSAGG [r13_809_JUSTAS]	2.13 ± 0.079	2.47 ± 0.21	2.96 ± 0.2
SAGMITPEELEERIRKLAEETGGPRYRVKVRGPDGPLYEFEVGFTPEEIERLAKELGVDIVEVEPIPESAGG [r19_50_TrMRF]	2.97 ± 0.085	3 ± 0.11	3.07 ± 0.13
SAGGSAGGGPPSPVQTSTTSFSVSGDSSVTNVTVVTLPDGSLLVETTVFPSSGGSVSSLSSIPASAGGSAGG [r6_670_JUSTAS]	1.27 ± 0.031	0.855 ± 0.058	0.218 ± 0.21
SAGGFKEIKKKLGVKKEDKVILDLEVNFGKKPKFFKVEFEVDKLEEIVKELGIPKENLKIVKAVVIKESAGG [r13_681_TrMRF]	-0.523 ± 0.31	0.706 ± 0.13	1.16 ± 0.082
SAGGSAGGEVKIEVNKEKGYLLITVPKEEAEEIAKALKEKFGIKEVKIEVDEETDEVHILVKLESAGGSAGG [r6_661_TrROS_Hall]	2.5 ± 0.14	2.59 ± 0.27	2.98 ± 0.12
SAGGANIHVRMENPGDGKPMSFMIPVKEVREAKQEGKDEIKIPFGGGPMKVEIEPLPDGWVHIRMRMPSAGG [r13_171_TrROS]	0.417 ± 0.27	0.201 ± 0.26	-0.0135 ± 0.4
SIIRSPNGYWIVITVKVPEGAKPFPPGFEVQRDPEKGTLTIIMPMPPDDIRRLAEHPGVEIEKIEFIPWDSA [r9_827_TrROS]	1.14 ± 0.032	1.74 ± 0.069	2.05 ± 0.021
SEDTVTIEVRAFPVKDKNGKPRFYVSIEFGNGPVSYPIPGLPEGMKEGETFTIEIPPENIKKVDISIMPYSA [r9_769_TrROS]	2.09 ± 0.12	1.97 ± 0.19	2.09 ± 0.1
SAGGPMKVKVTLIVRDKETGEWKEVEREMTLDELRELLASLPPDAEVFVKIEVDGKTVTLSLEELKALSAGG [r13_254_TrROS_Hall]	3.84 ± 0.17	4.29 ± 0.12	4.32 ± 0.097
SAGGRFYFEAKDPSITPEELRAALEEAFGVKFHRIKPVEPLPDGMLYEVEIPEIGGHFDVSAEEIEKLLSAG [r5_550_TrMRF]	1.27 ± 0.053	1.56 ± 0.16	1.78 ± 0.077
SAGGLYKKDPDGQYVKPVPKVPPIPIEIKFPNGVEVKIEIYPYSNHITIEYTGPNPELANELIQEIIQSAGG [r13_701_TrROS]	0.425 ± 0.091	0.702 ± 0.19	0.624 ± 0.2
SAGGSAGGSAGGTPITDEEFRDLPDDVKLVFENGEVAYVPRDPLKVPIGADKTVTAEPVPSAGGSAGGSAGG [r7_643_TrMRF]	1.2 ± 0.059	0.801 ± 0.056	0.388 ± 0.035

Source: the supplement of paper PMC12764529
